From patent US20260028424A1 (GRANULAR THERAPEUTICS, published 2026)
Where a chain is given by its changes, count along the chain named.

T1: human CD203c expressed on the surface of KU812 cells (human, UniProt O14638 1-875)
T1 construct: whole, on cells; also called cell-surface CD203c; cell surface CD203c on KU812 cells
T1 sequence (looked up): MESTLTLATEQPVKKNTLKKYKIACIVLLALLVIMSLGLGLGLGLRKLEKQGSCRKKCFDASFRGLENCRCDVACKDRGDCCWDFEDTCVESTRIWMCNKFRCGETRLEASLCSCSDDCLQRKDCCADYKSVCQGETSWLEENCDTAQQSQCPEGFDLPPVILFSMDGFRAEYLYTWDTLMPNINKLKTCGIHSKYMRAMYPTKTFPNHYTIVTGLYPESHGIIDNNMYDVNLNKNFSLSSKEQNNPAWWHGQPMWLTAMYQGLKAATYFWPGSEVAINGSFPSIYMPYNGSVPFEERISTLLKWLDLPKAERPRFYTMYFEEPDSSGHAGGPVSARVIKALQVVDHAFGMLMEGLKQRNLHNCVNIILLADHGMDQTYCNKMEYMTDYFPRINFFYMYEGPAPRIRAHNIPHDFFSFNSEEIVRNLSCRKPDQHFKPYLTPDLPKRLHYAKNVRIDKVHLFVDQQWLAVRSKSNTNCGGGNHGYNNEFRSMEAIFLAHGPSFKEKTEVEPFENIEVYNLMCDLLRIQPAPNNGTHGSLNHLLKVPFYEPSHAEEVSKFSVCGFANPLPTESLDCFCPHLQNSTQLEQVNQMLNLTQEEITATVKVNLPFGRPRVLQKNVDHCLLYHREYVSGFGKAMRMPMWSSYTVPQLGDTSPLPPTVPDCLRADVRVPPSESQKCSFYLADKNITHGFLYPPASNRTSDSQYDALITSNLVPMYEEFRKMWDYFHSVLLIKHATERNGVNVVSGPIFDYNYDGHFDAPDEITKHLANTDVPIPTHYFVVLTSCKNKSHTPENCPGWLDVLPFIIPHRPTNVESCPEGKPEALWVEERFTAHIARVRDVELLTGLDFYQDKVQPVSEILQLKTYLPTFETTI

T2: human CD203c His-tagged recombinant protein (human, UniProt O14638 49-875, limits assumed)
T2 construct: also called ENPP3; not shown: His tag
T2 sequence (looked up): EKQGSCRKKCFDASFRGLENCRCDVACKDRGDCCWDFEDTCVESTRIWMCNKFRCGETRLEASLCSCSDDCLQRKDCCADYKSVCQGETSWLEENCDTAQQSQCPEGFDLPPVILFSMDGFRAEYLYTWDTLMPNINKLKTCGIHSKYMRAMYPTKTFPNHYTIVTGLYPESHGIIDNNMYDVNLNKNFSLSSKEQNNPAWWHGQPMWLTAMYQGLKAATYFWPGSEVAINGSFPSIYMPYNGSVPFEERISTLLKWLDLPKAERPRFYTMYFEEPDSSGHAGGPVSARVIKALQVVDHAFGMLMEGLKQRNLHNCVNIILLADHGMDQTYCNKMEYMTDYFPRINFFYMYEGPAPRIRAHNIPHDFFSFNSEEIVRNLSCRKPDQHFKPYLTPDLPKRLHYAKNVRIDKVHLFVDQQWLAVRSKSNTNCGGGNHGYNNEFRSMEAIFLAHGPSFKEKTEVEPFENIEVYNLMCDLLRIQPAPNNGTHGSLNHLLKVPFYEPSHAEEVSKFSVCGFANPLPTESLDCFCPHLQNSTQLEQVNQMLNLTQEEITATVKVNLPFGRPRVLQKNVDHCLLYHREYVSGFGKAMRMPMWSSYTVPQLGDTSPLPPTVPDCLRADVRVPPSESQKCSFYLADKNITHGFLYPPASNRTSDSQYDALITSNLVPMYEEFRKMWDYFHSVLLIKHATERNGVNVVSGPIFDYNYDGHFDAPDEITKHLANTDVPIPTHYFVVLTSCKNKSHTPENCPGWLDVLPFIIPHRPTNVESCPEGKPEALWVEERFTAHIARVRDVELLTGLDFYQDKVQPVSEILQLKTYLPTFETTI

T3: rhesus monkey CD203c His-tagged recombinant protein (rhesus monkey, UniProt F6TH66 31-874)
T3 construct: also called rhesus CD203c; not shown: His tag
T3 sequence: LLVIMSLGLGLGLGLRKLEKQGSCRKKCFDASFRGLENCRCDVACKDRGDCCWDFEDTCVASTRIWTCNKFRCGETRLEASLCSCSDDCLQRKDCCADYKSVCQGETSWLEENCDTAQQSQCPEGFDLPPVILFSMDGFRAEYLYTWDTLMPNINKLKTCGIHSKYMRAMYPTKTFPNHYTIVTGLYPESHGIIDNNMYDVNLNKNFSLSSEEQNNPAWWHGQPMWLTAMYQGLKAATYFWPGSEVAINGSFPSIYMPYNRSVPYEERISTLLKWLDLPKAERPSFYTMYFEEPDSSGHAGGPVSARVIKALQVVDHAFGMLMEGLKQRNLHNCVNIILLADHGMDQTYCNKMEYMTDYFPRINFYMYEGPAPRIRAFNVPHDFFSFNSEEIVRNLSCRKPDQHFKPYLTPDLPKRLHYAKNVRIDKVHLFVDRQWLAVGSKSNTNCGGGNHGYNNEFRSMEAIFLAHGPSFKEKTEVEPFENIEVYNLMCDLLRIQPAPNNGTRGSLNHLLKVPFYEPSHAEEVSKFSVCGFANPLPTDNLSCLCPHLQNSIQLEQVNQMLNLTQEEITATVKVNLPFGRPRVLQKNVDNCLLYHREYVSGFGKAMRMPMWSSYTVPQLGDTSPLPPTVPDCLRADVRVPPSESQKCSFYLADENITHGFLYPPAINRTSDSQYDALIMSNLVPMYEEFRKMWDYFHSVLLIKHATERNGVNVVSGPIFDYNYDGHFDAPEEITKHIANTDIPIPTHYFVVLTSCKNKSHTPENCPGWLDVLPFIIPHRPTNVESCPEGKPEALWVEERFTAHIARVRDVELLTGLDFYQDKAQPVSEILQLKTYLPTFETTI

B1: F6/MH1 common light chain bispecific (anti-CD203c F6 x anti-c-Kit MH1) (bispecific antibody, V domains shown)
VH 1: QVQLVQSGAEVKKPGASVKVSCKASGYTFTDYYMNWVRQAPGQGLEWMGRIYPGSGNTYYAQKFQGRVTMTRDTSTSTVYMELSSLRSEDTAVYYCARGVYYYDYWGQGTLVTVSS
VH 2: EVQLVQSGAEVKKPGESLKISCKGSGYRFASNWIGWVRQMPGKGLEWMGEIYPGDSNTRYSPSFQGQVTISADKSISTAYLQWSSLKASDTAMYYCARKDYYYYAMDVWGQGTTVTVSS
VL: DIQMTQSPSSLSASVGDRVTITCRASQGIRTNLAWFQQKPGKAPKSLIYAASSLQSGVPSRFSGSGSGTDFTLTISSLQPEDFATYYCQQYNSYPRTFGGGTKVEIK
notes: Knob-in-hole IgG1null bispecific with human Ckappa; also called F6/MH1 bispecific molecule
B2: bispecific pair with alternative common light chain VL1: MH1 VH / 2.7_1 VH / VL1 (bispecific antibody, V domains shown)
VH 1: B1 VH 1
VH 2: EVQLVESGPGLVKPSETLSLTCTVSGGSISSSSYYWGWIRQPPGKGLEWIGSMYYSGSTYHNPSLKSRVIISVDTSKNQFSLKLSSVTAADTAVYYCARHYITVAGIFDYWGQGTLVTVSS
VL: QSVLTQPPSASGTPGQRATISCRASQGIRTNLAWYQQVPGTAPKLLIYAASSLQSGVPSRFSGSKSGTSASLAISGLQSEDEADYYCQQYNSYPRTFGGGTKLTVL
notes: Format as tested (bispecific or separate IgGs) is not described beyond 'bispecific pairs'
B3: bispecific pair with alternative common light chain VL2: MH1 VH / 2.7_1.2 VH / VL2 (bispecific antibody, V domains shown)
VH 1: B1 VH 1
VH 2: B2 VH 2
VL: B2 VL with A49S, A50N, S51N, S52Q, L53R, Q54P, S59D
B4: bispecific pair with alternative common light chain VL4: MH1 VH / 2.14_1.2 VH / VL4 (bispecific antibody, V domains shown)
VH 1: B1 VH 1
VH 2: QVQLQESGPGLVKPSQTLSLTCTVSGGSISSGGYYWSWIRQHPGKGLEWIGIIYYSGSTYYNPSLKSRVTISVDTSKNQFSLKLNSVTAADTAVFYCARVAIVTTIPGGMDVWGQGTTVTVSS
VL: EIVLTQSPDFQSVTPKEKVTITCRASQGIRTNLAWYQQKPDQSPKLLIKYASQSFSGVPSRFSGSGSGTDFTLTINSLEAEDAATYYCQQYNSYPRTFGQGTKVEIK
B5: 10 (antibody, V domains shown)
VH: B1 VH 2 with A30T, N32Y, E50I, N57D, Y104G
VL: B1 VL
notes: also called variant 10; 10 VH domain
B6: C4 (antibody, V domains shown)
VH: B1 VH 2 with A30G, N32Y, E50D, D55N, N57D
VL: B1 VL
notes: also called variant C4; C4 VH domain
B7: 17 (antibody, V domains shown)
VH: B1 VH 2 with A30T, N32Y, E50I, N57D, Y104N, D107P
VL: B1 VL
notes: also called variant 17; 17 VH domain
B8: A5 (antibody, V domains shown)
VH: B1 VH 2 with A30S, N32Y, W33R, N57K
VL: B1 VL
notes: also called variant A5; A5 VH domain
B9: 15 (antibody, V domains shown)
VH: B1 VH 2 with A30T, N32Y, E50I, N57D, Y104G, A105T
VL: B1 VL
notes: also called variant 15; 15 VH domain
B10: 11 (antibody, V domains shown)
VH: B1 VH 2 with A30T, N32Y, E50I, N57D, Y104G, M106F
VL: B1 VL
notes: also called variant 11; 11 VH domain

biological target: c-Kit (antigen of the binding assay of FIG. 9A) (Homo sapiens (Human), UniProt P10721 26-524); test: plate binding assay on Human c-KIT, A450-A630 (ratio corrected)
Sequence (P10721 26-524 limits assumed): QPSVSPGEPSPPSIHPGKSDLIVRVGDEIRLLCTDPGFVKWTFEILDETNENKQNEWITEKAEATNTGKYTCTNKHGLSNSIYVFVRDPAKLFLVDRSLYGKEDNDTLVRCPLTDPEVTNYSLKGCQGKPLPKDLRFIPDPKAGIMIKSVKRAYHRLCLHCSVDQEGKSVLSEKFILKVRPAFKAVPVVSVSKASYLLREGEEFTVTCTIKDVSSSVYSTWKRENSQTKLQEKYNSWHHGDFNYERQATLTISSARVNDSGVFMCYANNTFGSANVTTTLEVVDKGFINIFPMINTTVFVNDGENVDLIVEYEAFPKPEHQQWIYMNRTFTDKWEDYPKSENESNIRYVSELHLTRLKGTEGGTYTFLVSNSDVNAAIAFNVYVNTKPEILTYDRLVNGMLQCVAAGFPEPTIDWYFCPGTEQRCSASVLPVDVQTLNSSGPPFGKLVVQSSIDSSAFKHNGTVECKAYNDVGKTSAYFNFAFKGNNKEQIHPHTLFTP

| EC50 (read off the curve) [µg/mL] | Binder |
| --- | --- |
| ~0.5 | B1 |
| ~0.06 | B2 |
| ~0.06 | B3 |
| ~0.06 | B4 |

biological target: T1, human CD203c expressed on the surface …; test: flow cytometry on KU812 cells, MFI (530/30 - 488nm) of live cells

| binding result | Binder |
| --- | --- |
| binds | B5 |
| binds | B6 |
| binds | B7 |
| binds | B8 |
| binds | B9 |
| binds | B10 |

biological target: T2, human CD203c His-tagged recombinant …; test: direct binding ELISA on human CD203c, absorbance (blank corrected)

| binding result | Binder |
| --- | --- |
| binds | B5 |
| binds | B6 |
| binds | B7 |
| binds | B8 |
| binds | B9 |
| binds | B10 |

biological target: T3, rhesus monkey CD203c His-tagged …; test: direct binding ELISA on rhesus CD203c, absorbance (blank corrected)

| binding result | Binder |
| --- | --- |
| binds | B5 |
| binds | B7 |
| binds | B9 |
| binds | B10 |
